The record followed here is US8524227B2, “Anti-IL-TIF antibodies” (ZymoGenetics, Inc., priority 2002, dated 2013).

Data set [1] can be described thus: IL-TIF-induced acanthosis, subcutaneous mini-osmotic pump. The following applies: for Average Acanthosis: score 0-4. Format: in vivo, mice. How it is done: Mice (female, C3H/HEJ, 8 weeks old; Jackson Labs, Bar Harbor, Me.) were divided into three groups of six animals and one group of 4. Human BHK-produced IL-TIF was administered by constant infusion via mini-osmotic pumps, resulting in local and steady state serum concentrations proportional to the concentration of the IL-TIF contained in the pump. Alzet mini-osmotic pumps (model 2002; Alza corporation Palo Alto, Calif.) were loaded under sterile conditions with IL-TIF protein (A601F, 0.22 mL) diluted in phosphate buffered saline (pH 7.0) to a concentration within the pump of 2 mg/mL for group 1 mice, 0.2 mg/mL for group 2 mice, 0.02 mg/mL for group 3 mice, or 0 mg/mL (diluent only) for group 4 mice. Pumps were implanted subcutaneously in mice through a 1 cm incision in the dorsal skin, and the skin was closed with sterile wound closures. These pumps are designed to deliver their contents at a rate of 0.5 μl per hour over a period of 14 days. Using this nominal rate of infusion, dose levels were calculated to be 24 μg/day, 2.4 μg/day, 0.24 μg/day and 0 μg/day for groups 1-4, respectively.
At the end of the 14-day period, the mice were euthanized and an approximately 1 cm square sample of skin surrounding the pump area was collected from each mouse. The skin was fixed in 10% neutral buffered formalin. Formalin fixed samples of skin were embedded in paraffin, routinely processed, sectioned at 5 um and stained with hematoxylin and eosin. The tissues were microscopically examined in blinded fashion by an ACVP board certified veterinary pathologist. […] In addition, the skin of selected groups was imaged with a CoolSnap digital camera (Roper Scientific, Inc., San Diego, Calif.) and epidermal thickness measured using histomorphometry software (Scion Image for Windows, v. 4.02, Scion Corp., Frederick, Md.).

For the next data set, the target named is T1, IL-TIF (Homo sapiens, UniProt Q9GZX6).
T1 construct: made in house; host or cells: BHK cells
T1 sequence (Q9GZX6 34-179): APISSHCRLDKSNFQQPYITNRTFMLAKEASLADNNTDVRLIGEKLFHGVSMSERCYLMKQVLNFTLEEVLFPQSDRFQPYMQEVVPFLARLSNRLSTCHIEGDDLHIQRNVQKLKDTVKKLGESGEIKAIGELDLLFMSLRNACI
As to the kind of experiment: Effect of zcytor16 on IL-TIF-induced acanthosis. The following applies: for Average Acanthosis: day 8, score 0-3. In kind it is in vivo, mice. On the procedure:
Mice (female, C3H/HEJ, 8 weeks old; Jackson Labs, Bar Harbor, Me.) were divided into eight groups of eight animals each. IL-TIF was administered by constant infusion via mini-osmotic pumps, as described in example 32a. Alzet mini-osmotic pumps (model 2001; Alza corporation Palo Alto, Calif.) were loaded under sterile conditions with IL-TIF protein (A#601F, 0.22 mL) diluted in phosphate buffered saline (pH 7.0) to a concentration within the pump of 0.22 mg/mL for group 1-2 mice, 0.45 mg/mL for group 3-4 mice, 0.9 mg/mL for group 5-6 mice, or 0 mg/mL (diluent only) for group 7-8 mice. These pumps are designed to deliver their contents at a rate of 0.5 μl per hour over a period of 14 days. Using this nominal rate of infusion, dose levels were calculated to be […] and 0 μg/day for groups 7-8. For each pair of groups at a given dose level of IL-TIF, one of the groups was injected three times (days 1, 3, and 5) with 0.1 mg of human zcytor16 Fc protein (described herein) by the interperitoneal route. The other group was injected in the same fashion with vehicle (PBS).
On day 8 of the study, mice were euthanized and an approximately 1 cm square sample of skin surrounding the pump area was collected from each mouse. The skin was fixed in 10% neutral buffered formalin. Formalin fixed samples of skin were embedded in paraffin, routinely processed, sectioned at 5 um and stained with hematoxylin and eosin. The tissues were microscopically examined in blinded fashion by an ACVP board certified veterinary pathologist. This study was scored in a different manner than the previous example. The number of layers in the epidermis, from stratum basalis to stratum granulosum, was determined Based on the results, the sections were scored as follows: O-normal (2-3 layers), 1-mild thickening (3-4 layers), 2-moderate thickening (4-6 layers) and 3-severe thickening (>6 layers).

The subject of the next data set is K-562 cells. In words: K-562 cytotoxicity assay (MTT). The following applies: 72 h. Format: cell-based, human. On the procedure:
The K-562 cell line (CRL-243, ATCC) has attained widespread use as a highly sensitive in vitro target for cytotoxicity assays. K-562 blasts are multipotential, hematopoietic malignant cells that spontaneously differentiate into recognizable progenitors of the erythrocytic, granulocytic and monocytic series (Lozzio, B B et al., Proc. Soc. Exp. Biol. Med. 166: 546-550, 1981).
K562 cells were plated at 5,000 cells/well in 96-well tissue culture clusters (Costar) in DMEM phenol-free growth medium (Life Technologies) supplemented with pyruvate and 10% serum (HyClone). Next day, human recombinant IL-TIF (Example 19), BSA control or retinoic acid (known to be cytotoxic to K562 cells) were added. Seventy-two hours later, the vital stain MTT (Sigma, St Louis, Mo.), a widely used indicator of mitochondrial activity and cell growth, was added to the cells at a final concentration of 0.5 mg/ml. MTT is converted to a purple formazan derivative by mitochondrial dehydrogenases. Four hours later, converted MTT was solubilized by adding an equal volume of acidic isopropanol (0.04N HCl in absolute isopropanol) to the wells. Absorbance was measured at 570 nm, with background subtraction at 650 nm. In this experimental setting, absorbance reflects cell viability. Results shown in Table 7 are expressed as % cytotoxicity.

B1: IL-TIF: pro-inflammatory cytokine polypeptide, SEQ ID NO:3; also designated IL-22 (protein, listed as Homo sapiens)
chain: MGTLATSCLLLLALLVQGGAAAPISSHCRLDKSNFQQPYITNRTFMLAKEASLADNNTDVRLIGEKLFHGVSMSERCYLMKQVLNFTLEEVLFPQSDRFQPYMQEVVPFLARLSNRLSTCHIEGDDLHIQRNVQKLKDTVKKLGESGEIKAIGELDLLFMSLRNACI
Turning to B1, the “Average Acanthosis” value stood at 2.2 in data set [1] (0.24 μg IL-TIF/day, 14 days); 2.4 in data set [1] (2.4 μg IL-TIF/day, 14 days); 3.0 in data set [1] (24 μg IL-TIF/day, 14 days); 1.1 with IL-TIF (pump 2.5 μg IL-TIF/day + 100 μL vehicle (3 injections)); 2.0 with IL-TIF (pump 5 μg IL-TIF/day + 100 μL vehicle (3 injections)); 2.0 in the data set with IL-TIF (pump 10 μg IL-TIF/day + 100 μL vehicle (3 injections)). The “Measured Thickness” value in data set [1] (2.4 μg IL-TIF/day, 14 days) came out at 67.5 pixels. For the same molecule, the skin histology result is listed as “epidermal thickening” in data set [1] (2.4 and 24 μg/day); “epidermal thickening” with IL-TIF (IL-TIF at 2.5, 5, 10 μg/day). In addition, in data set [1] (not observed in vehicle treated controls), the cell infiltrates result is given as “mononuclear cell infiltrates in the epidermis”. Further, the “% Cytotoxicity” value is 16.2% in the data set on K-562 cells (100 ng/ml) and 32% in the data set with K-562 cells (300 ng/ml).
